Laboratory results as given in PMC2892505, “SUMO-1 possesses DNA binding activity”.
Blank lines part the entries; values can stand above or below the molecule they belong to.

Key:
GST-SUMO-1 [1] = experiment: cross-linking; about 100 ng protein without or with increasing dsDNA, 10 min 37°C in NMR buffer (100 mM Na2PO4 pH 6.6, 1 mM EDTA, 1 mM DTT), UV 312 nm 10 min, SDS-PAGE and western blot (anti-GST or anti-SUMO-1); also with DNaseI treatment
SUMO-1 = SUMO-1 (human, UniProt P63165 1-101); experiment: UV crosslinking, Western blot; NMR: 100 mM NaPi pH 6.6, 1 mM DTT, 1 mM EDTA, temperature not stated; UV crosslink: 100 ng GST-SUMO-1 with 500 ng dsDNA, buffer not stated; conditions: protein: recombinant; tags: untagged (GST removed by thrombin); 15N-labeled for NMR; blunt
GST-SUMO-1 [2] = biological target: GST-SUMO-1 (human, UniProt P63165 1-101); experiment: UV crosslinking, Western blot; complex migrates faster than with 65-mer; NMR: 100 mM NaPi pH 6.6, 1 mM DTT, 1 mM EDTA, temperature not stated; UV crosslink: 100 ng GST-SUMO-1 with 500 ng dsDNA, buffer not stated; conditions: protein: recombinant; chain copies: 2; blunt
GST-SUMO-1 (human, UniProt P63165 1-101), sequence (P63165 whole entry): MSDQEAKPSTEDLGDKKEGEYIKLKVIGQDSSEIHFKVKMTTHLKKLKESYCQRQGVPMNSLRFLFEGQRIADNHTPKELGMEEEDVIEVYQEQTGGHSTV

SUMO-1, sequence (P63165 whole entry): as above

stoichiometry N (GST-SUMO-1 [1]): 2
Molecule: GST-SUMO-1

B1: 27-mer (dsDNA)
DNA 1: CGGGGCCGGGGCGGGCCGCGCAAGCAG
DNA 2: CTGCTTGCGCGGCCCGCCCCGGCCCCG
binding result (SUMO-1): binds
binding result (GST-SUMO-1 [2]): binds
